The values below come from article PMC9243173.

In the assay the target is 3HA-3FLAG-CIAO3-C190S/C395S (human) (UniProt Q9H6Q4). In words: affinity purification with mass spectrometry; anti-HA beads on lysates of Flp-In 293 cells expressing the 3HA-3FLAG-tagged bait (NUBP2, wildtype or mutant CIAO3); targeted proteomics assay (parallel reaction monitoring) of CIA components and substrates; CIAO3 purifications normalised to CIAO3; wildtype CIAO3 cells also treated with FAC or DFO for 8 h.
3HA-3FLAG-CIAO3-C190S/C395S (human), sequence (Q9H6Q4 whole entry C190S/C395S): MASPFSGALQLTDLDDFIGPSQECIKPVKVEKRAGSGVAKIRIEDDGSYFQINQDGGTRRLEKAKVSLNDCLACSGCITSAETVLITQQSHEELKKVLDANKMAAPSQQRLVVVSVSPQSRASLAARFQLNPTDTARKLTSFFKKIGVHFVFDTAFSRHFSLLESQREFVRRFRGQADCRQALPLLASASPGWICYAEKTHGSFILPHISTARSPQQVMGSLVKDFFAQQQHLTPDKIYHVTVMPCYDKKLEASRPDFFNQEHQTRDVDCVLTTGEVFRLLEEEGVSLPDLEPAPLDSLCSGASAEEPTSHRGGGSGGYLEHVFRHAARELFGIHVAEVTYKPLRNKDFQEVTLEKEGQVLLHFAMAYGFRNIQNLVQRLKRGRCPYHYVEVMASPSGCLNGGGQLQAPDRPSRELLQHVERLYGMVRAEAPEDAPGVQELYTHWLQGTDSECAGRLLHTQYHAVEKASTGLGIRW

In turn, The CIA targeting complex came in with a fold decrease against wildtype CIAO3 of 3 to 4 fold.
